According to patent US20230414780A1 (VECT HORUS, published 2023):
Where a chain is given by its changes, count along the chain named.

B1: B8^V2 (VHH)
VHH: EVQLVESGGGVVQPGGSLRLSCAASGEIFSINFMRWYGQAPGKQREWVAGFTRDGSTNYPDSAKGRFTISRDNAKNTVYLQIDSLKPEDTAVYYCYMLDTWGQGTQVTVSS
B2: B8^V19 (VHH)
VHH: B1 VHH with G38R, E46H
B3: B8^V9 (VHH)
VHH: B1 VHH with G38R, T57K
B4: B8^V17 (VHH)
VHH: B1 VHH with G38R, W47F
B5: B8^V4 (VHH)
VHH: B1 VHH with G38R, G42I
B6: B8^V23 (VHH)
VHH: B1 VHH with R35I, G38R
B7: B8^V18 (VHH)
VHH: B1 VHH with F29H, G38R
B8: B8^V5 (VHH)
VHH: B1 VHH with G38R, Q44I
B9: B8^V7 (VHH)
VHH: B1 VHH with G38R, S56Y
B10: B8^V15 (VHH)
VHH: B1 VHH with G38R, G55D
B11: B8^V21 (VHH)
VHH: B1 VHH with F33N, G38R
B12: B8^V20 (VHH)
VHH: B1 VHH with G38R, T57H
B13: B8^V14 (VHH)
VHH: B1 VHH with G38R, D54L
B14: B8^V11 (VHH)
VHH: B1 VHH with G26D, G38R
B15: B8^V8 (VHH)
VHH: B1 VHH with G38R, T57L
B16: B8^V6 (VHH)
VHH: B1 VHH with G38R, S56F
B17: C5^h16 (VHH)
VHH: EVQLVESGGGLVQPGGSLRLSCAASGTDFSINFIRWYRQAPGKGLEFVAGFTATGNTNYADSVKGRFTISRDNSKNTLYLQMNSLRAEDTAVYYCYMLDKWGQGTLVTVSS
B18: C5^V20 (VHH)
VHH: EVQLVESGGGVVQPGGSLKLSCVASGHDFSINFIRWYRQAPGKQREFVAGFTATGNTNYADSMKGRFTISRDNTKNAVYLQIDSLKPEDTAVYYCYMLDKWGQGTQVTVSS
B19: C5^V21 (VHH)
VHH: B18 VHH with H27T, F51W
B20: C5^h23 (VHH)
VHH: B17 VHH with L11V, Y37V, G44Q, L45R, S74A, A87P, L106Q
B21: C5^V25 (VHH)
VHH: B18 VHH with H27T, M97L
B22: C5^h11 (VHH)
VHH: B17 VHH with L11V, Y37V, F47W, V63M, S74T, A87P, L106Q
B23: C5^V28 (VHH)
VHH: B18 VHH with H27A, T52S
B24: C5^h13 (VHH)
VHH: B17 VHH with L11V, S74T, A87P, L106Q
B25: C5^V26 (VHH)
VHH: B18 VHH with H27T, M97V
B26: C5^h12 (VHH)
VHH: B17 VHH with L11V, S74A, M82I, N83D, A87P, L106Q
B27: C5^h24 (VHH)
VHH: B17 VHH with L11V, V63M, S74A, A87P, L106Q
B28: C5^V22 (VHH)
VHH: B18 VHH with H27T, F51Y
B29: C5^h21 (VHH)
VHH: B17 VHH with L11V, S74A, R86K, A87P, L106Q
B30: C5^h26 (VHH)
VHH: B17 VHH with L11V, F47W, S74A, M82I, N83D, A87P, L106Q
B31: VHH A10 (C5^V10) (VHH)
VHH: B18 VHH with H27T, I31L
B32: C5^V24 (VHH)
VHH: B18 VHH with H27T, Y96W
B33: VHH A14 (C5^V14) (VHH)
VHH: B18 VHH with H27T, T57S
B34: C5^V23 (VHH)
VHH: B18 VHH with H27T, Y96H
B35: VHH A24 (C5^h5) (VHH)
VHH: B17 VHH with L11V, Y37V, F47W, S74A, A87P, L106Q
B36: C5^h15 (VHH)
VHH: B17 VHH with L11V, A23V, Y37V, F47W, S74T, N83D, A87P, L106Q
B37: C5^h10 (VHH)
VHH: B17 VHH with L11V, R19K, Y37V, F47W, S74T, M82I, A87P, L106Q
B38: VHH A21 (C5^h2) (VHH)
VHH: B17 VHH with L11V, Y37V, G44Q, L45R, S74A, A87P, L106Q
B39: C5^h17 (VHH)
VHH: B18 VHH with H27T, Y37V, Q44G, R45L, V78L, K86R
B40: C5^h14 (VHH)
VHH: B17 VHH with L11V, Y37V, F47W, S74T, T77A, A87P, L106Q
B41: C5^h8 (VHH)
VHH: B17 VHH with L11V, Y37V, F47W, S74T, M82I, N83D, A87P, L106Q

target: T1, rhesus monkey transferrin receptor (rhTfR) fused to EGFP, on CHO cells (rhesus monkey); experiment: apparent Kd, flow cytometry, CHO cells
T1 construct: whole, on cells; also called rhesus monkey TfR
Experimental: (§1) The binding properties of VHHs with affinity for the TfR from different species (i.e., human (h), mouse (m) and rhesus monkey (rh)) were tested using flow cytometry, and apparent affinities (Kd app) were determined. All experiments were performed in 96 well plates using 2×10⁵ cells/well, at 4° C. with shaking. CHO cell lines expressing the hTfR, mTfR or rhTfR fused to EGFP were saturated with PBS/BSA 2% solution during 30 min to avoid nonspecific binding, followed by incubation with purified VHHs at increasing concentrations for 1 hr. After one wash in PBS/BSA 2%, cells were incubated for 1 hr with an anti-6His tag antibody (mouse), washed twice with PBS/BSA 2%, and incubated for 1 hr with an Alexa647-conjugated anti-mouse secondary antibody. After two last washes in PBS/BSA 2%, cells were fixed by incubation for 15 min with PBS/PFA 2%, washed once with PBS and finally resuspended in PBS. Fluorescence levels were assessed using an Attune NxT flow cytometer (Thermo Fisher Scientific). Experimental data were fitted with GraphPad Prism® software using a nonlinear fit to determine the apparent Kd constants. […] Table 5 hereafter summarizes apparent Kd obtained for the tested VHHs.

Kd [nM]	Binder
0.1	B1
2.3	B2
2.4	B3
2.5	B4
0.3	B5
939	B6
1.6	B7
2.1	B8
2.6	B9
4.3	B10
469	B11
1.8	B12
1.9	B13
2	B14
2.1	B15
2.7	B16
760	B17

Kd [nM]	Binder
6.1	B18
8.2	B19
2000	B20
429	B21
1240	B22
371	B23
730	B24
335	B25
361	B26
641	B27
11	B28
1010	B29
656	B30
5.1	B31
564	B32
3.9	B33
353	B34

target: T2, human transferrin receptor (hTfR) fused to EGFP, on CHO cells (human, UniProt P02786 1-760); experiment: apparent Kd, flow cytometry, CHO cells
T2 construct: whole, on cells; also called human TfR; CHO-hTfR-EGFP; not shown: EGFP from pEGFP-C1 vector, fused to the N-terminal (intracellular) end of hTfR
Experimental: as §1

T2 sequence (P02786 whole entry, the tested form may be a part): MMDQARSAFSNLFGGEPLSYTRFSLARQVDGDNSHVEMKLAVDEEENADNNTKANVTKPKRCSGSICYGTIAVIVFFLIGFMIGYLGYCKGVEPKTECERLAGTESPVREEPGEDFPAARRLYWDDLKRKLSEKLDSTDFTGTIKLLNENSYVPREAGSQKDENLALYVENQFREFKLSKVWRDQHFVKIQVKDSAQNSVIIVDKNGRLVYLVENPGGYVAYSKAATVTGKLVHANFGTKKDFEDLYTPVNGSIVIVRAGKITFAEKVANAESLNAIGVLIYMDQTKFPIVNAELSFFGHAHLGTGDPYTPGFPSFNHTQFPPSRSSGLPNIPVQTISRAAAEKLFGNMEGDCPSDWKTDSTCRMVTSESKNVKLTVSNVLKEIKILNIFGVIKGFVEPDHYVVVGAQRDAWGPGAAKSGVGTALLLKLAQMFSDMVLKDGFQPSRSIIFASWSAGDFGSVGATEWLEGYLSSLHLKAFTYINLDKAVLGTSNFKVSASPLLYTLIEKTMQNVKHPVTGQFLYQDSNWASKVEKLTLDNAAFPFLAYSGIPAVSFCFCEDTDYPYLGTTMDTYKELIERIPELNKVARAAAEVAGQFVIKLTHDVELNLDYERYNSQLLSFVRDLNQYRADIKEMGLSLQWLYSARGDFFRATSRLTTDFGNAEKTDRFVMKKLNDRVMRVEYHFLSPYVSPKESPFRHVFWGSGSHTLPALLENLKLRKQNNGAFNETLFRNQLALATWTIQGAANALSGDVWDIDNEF

Kd [nM]	Binder
0.1	B1
6.2	B2
2.8	B3
4.8	B4
0.4	B5
29	B6
3.8	B7
2.3	B8
5.7	B9
4.7	B10
29	B11
4.5	B12
4.8	B13
4.6	B14
2.5	B15
3.8	B16
193	B35
8.1	B17
2.5	B18
1090	B36
2.4	B19

Kd [nM]	Binder
594	B20
4.5	B21
1130	B22
3.3	B23
8.3	B24
7.9	B25
1070	B37
4.3	B26
267	B38
4.1	B27
2.7	B28
8.8	B29
630	B39
1100	B40
987	B41
4	B30
3.4	B31
4.3	B32
3.3	B33
4.5	B34

target: T3, mouse transferrin receptor (mTfR) fused to EGFP, on CHO cells (mouse, UniProt Q62351 1-763); experiment: apparent Kd, flow cytometry, CHO cells
T3 construct: whole, on cells; also called mouse TfR; CHO-mTfR-EGFP; not shown: EGFP
Experimental: as §1

T3 sequence (Q62351 whole entry, the tested form may be a part): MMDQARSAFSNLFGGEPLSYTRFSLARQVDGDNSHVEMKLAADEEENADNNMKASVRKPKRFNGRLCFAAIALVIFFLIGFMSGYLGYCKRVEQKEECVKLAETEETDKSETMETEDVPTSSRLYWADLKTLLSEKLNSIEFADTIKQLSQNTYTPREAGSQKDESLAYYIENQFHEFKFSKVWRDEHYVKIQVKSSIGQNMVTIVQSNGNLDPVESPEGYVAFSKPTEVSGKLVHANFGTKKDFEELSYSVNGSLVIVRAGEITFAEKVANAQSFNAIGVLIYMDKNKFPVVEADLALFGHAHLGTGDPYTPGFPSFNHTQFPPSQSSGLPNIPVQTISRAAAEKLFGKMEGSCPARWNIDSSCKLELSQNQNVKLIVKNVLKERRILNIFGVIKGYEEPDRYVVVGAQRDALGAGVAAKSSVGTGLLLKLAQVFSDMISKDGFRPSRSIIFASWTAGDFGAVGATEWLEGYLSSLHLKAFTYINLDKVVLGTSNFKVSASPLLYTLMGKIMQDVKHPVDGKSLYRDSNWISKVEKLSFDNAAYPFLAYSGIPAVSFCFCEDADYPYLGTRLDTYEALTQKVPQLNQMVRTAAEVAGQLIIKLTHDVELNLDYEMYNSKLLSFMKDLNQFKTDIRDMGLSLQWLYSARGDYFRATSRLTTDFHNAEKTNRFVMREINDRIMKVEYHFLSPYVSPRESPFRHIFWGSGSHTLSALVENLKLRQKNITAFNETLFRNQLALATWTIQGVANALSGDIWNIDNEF

Kd [nM]	Binder
0.2	B1
7.6	B2
31	B3
5.2	B4
0.6	B5
1550	B6
43	B7
3.8	B8
41	B9
684	B10
3350	B11
6.4	B12
41	B13
22	B14
8.1	B15
16	B16
582	B17
125	B18
452	B36
120	B19

Kd [nM]	Binder
1540	B20
136	B21
1370	B22
160	B23
554	B24
211	B25
845	B37
331	B26
225	B38
624	B27
131	B28
600	B29
898	B39
164	B40
656	B41
675	B30
159	B31
218	B32
158	B33
254	B34
